T1: his-tagged human CDH6 extracellular region protein (hCDH6 ECD-his) (human, UniProt P55285 19-615)
T1 construct: also called Human CDH6-his; hCDH6-his; not shown: his tag
T1 sequence: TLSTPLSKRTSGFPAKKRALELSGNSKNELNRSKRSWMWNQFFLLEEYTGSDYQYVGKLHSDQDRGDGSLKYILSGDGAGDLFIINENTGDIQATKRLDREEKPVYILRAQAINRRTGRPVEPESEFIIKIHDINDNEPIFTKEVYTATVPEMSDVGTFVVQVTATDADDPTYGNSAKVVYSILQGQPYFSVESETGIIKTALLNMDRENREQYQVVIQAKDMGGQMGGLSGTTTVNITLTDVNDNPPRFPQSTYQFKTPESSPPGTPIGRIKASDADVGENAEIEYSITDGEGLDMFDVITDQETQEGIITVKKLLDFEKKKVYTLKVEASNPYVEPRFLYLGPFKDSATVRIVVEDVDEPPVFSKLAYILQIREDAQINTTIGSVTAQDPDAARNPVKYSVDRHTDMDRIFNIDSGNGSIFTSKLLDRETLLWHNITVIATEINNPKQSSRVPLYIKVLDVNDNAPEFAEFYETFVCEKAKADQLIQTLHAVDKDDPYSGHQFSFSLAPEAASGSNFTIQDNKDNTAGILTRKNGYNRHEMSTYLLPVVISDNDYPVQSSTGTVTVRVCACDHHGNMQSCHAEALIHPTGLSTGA

T2: human CDH6 with EC5 removed, on HEK293T cells (HEK293T-hCDH6-EC5 deletion) (human, UniProt P55285 54-790)
T2 construct: Signal peptide not removed here
T2 sequence: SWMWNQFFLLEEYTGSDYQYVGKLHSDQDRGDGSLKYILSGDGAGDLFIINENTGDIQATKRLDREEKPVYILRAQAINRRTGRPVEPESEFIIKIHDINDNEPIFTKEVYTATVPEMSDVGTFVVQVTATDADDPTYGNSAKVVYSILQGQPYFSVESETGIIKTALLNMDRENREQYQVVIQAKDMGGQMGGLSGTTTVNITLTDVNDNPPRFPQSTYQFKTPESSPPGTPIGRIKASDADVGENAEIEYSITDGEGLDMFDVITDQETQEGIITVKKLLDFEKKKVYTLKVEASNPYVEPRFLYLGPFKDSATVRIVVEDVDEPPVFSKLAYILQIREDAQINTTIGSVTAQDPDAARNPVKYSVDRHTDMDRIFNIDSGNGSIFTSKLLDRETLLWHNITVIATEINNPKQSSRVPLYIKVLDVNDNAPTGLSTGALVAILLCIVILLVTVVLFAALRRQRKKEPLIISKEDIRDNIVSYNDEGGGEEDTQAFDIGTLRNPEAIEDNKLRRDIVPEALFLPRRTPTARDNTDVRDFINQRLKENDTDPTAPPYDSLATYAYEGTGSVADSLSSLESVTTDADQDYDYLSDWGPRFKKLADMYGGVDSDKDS

B1: CHI-CDH6-7 (antibody, human IgG1, kappa, V domains shown)
VH: EVKLVESGGGLVKPGGSLKVSCAASGFTFSDHGMAWVRQAPGKGPEWVAFISNLAYSIYYADTVTGRFTISRENAKNTLYLEMSSLRSEDTAMYYCARVYVKWYFDVWGAGTTVTVSS
VL: DIQMTQSPASLSASVGETVTITCRASENIDSYLAWYQQKQGKSPQLLVFAATLLADGVPSRFSGSGSGTQYSLKINSLQSEDVARYYCQHYYSTPLTFGAGTKLELKR
notes: also called CH1-CDH6-7; chimeric antibody of murine CDH6-7
B2: CHI-CDH6-12 (antibody, human IgG1, kappa, V domains shown)
VH: EVNLVESGGGLVQPGDSLTLSCSASGFTFTDYYMSWVRQFPGKALEWLALIRNKANSYTTEYSASVKGRFTISRDNSQSILYLQMNALRAEDSATYYCARDSYYSHDGFAYWGQGTLVTVSA
VL: DIVLTQSPASLAVSLGQRATISCRASKSVSTSSYTYMHWYQQKPGQPPKLLIKFASYLESGVPARFSGSGSGTDFTLNIHPVEEEDAATYYCQHSREFPFTFGTGTKLEIKR
notes: also called CH1-CDH6-12; chimeric antibody of murine CDH6-12
B3: DS-H01L02 (antibody, human IgG1, kappa, V domains shown)
VH: EVQLVQSGAEVKKPGASVKVSCKASGYTFTRNFMHWVRQAPGQGLEWMGWIYPGDGETEYAQKFQGRVTITADTSTSTAYMELSSLRSEDTAVYYCARGVYGGFAGGYFDFWGQGTLVTVSS
VL: DIQMTQSPSSLSASVGDRVTITCKASQNIYKNLAWYQQKPGKAPKLLIYDANTLQTGVPSRFSGSGSGSDFTLTISSLQPEDFATYFCQQYYSGWAFGQGTKVEIKR
notes: Positive control, variable regions from WO2018212136A1; also called positive control anti-human CDH6 antibody

The binders below were run against T1, his-tagged human CDH6 extracellular … (assay: ELISA, coated antigen; ELISA, coated hCDH6 ECD-his; plateau signal).
Procedure: Human CDH6 protein (hCDH6 ECD-his, conventionally synthesized), monkey CDH6 protein (cynoCDH6 ECD-his, conventionally synthesized; the cynoCDH6 ECD sequence was derived from Uniprot #A0A2K5TW62 (19-615)), and murine CDH6 protein (mCDH6 ECD-his, conventionally synthesized; the mCDH6 ECD sequence was derived from Uniprot #P97326 (19-615)) were diluted with PBS to a final concentration of 1 μg/mL, and added to a 96-well ELISA plate at 100 μL/well. The plate was incubated at 4° C. overnight. The next day, the plate was washed 3 times with a plate washing solution (PBS+0.01% (v/v) Tween 20), and a blocking buffer (PBS+0.01% (v/v) Tween 20+2% (w/w) BSA) was added for blocking at room temperature for 2 h. The blocking buffer was discarded, and the plate was washed 3 times. The chimeric antibodies were diluted with 1% BSA+PBS (purchased from Cytiva, Cat. No. SH30264.01) and added to the 96-well plate at 50 μL/well. After incubation at 37° C. for 2 h, the plate was washed 3 times with a plate washing solution. […] The plate was incubated at 37° C. for 1 h and then washed 5 times with a plate washing solution. A TMB substrate (purchased from Seracare, Cat. No. 5120-0077) was added at 50 μL/well and incubated at room temperature for 10 min, then a stop solution (1.0 N HCl) was added at 50 μL/well. OD450 nm values were read using a microplate reader (Biotek). Analysis was performed by the GraphPad Prism software, data were fitted, and EC50 values were calculated. The chimeric antibodies tested all had strong binding to the human CDH6 protein, the monkey CDH6 protein, and the murine CDH6 protein.

Max OD450 | Binder
1.78 OD450 | B1
1.82 OD450 | B2
1.89 OD450 | B3

These binders were tested against T2, human CDH6 with EC5 removed, on HEK293T … (assay: FACS, HEK293T-hCDH6-EC5 deletion cells).
From the text: To confirm the binding epitope of the CDH6 antibody, the sequences after removal of these 5 regions were constructed into pcDNA3.1 vectors (purchased from Youbio, Cat. No. VT1001), and transfected into HEK293T cells (purchased from Cell Bank of Chinese Academy of Sciences, Cat. No. SCSP-502) to obtain 5 CDH6 truncated cell lines: HEK293T-hCDH6-EC1 deletion, HEK293T-hCDH6-EC2 deletion, HEK293T-hCDH6-EC3 deletion, HEK293T-hCDH6-EC4 deletion, and HEK293T-hCDH6-EC5 deletion.
The binding activity of the CDH6 chimeric antibodies to these 5 cell lines was assayed by FACS.

Max MFI | Binder
1020 MFI | B1
4490 MFI | B2
1530 MFI | B3

Reference: patent US20260234242A1 (HAINAN SIMCERE ZAIMING PHARMACEUTICAL, published 2026)
